Here are results for 5 molecules from publication PMC5645412, “AUNIP/C1orf135 directs DNA double-strand breaks towards the homologous recombination repair pathway” (Nature Communications, 2017).

One data set has as its target T1, MBP-tagged CtIP (UniProt Q99708 1-897).
T1 construct: CtIP; also called MBP-CtIP; source: E. coli BL21, purified (Amylose resin, eluted with maltose)
As to the kind of experiment: pull-down; GST or GST-AUNIP (wild type or mutant) on glutathione-Sepharose incubated with MBP-CtIP in NETN buffer, 2 h at 4 °C; five washes; CtIP detected by monoclonal anti-CtIP antibody. The note with it: both partners purified.

The target of a further data set is T2, MBP-AUNIP (UniProt Q9H7T9 1-357).
T2 sequence: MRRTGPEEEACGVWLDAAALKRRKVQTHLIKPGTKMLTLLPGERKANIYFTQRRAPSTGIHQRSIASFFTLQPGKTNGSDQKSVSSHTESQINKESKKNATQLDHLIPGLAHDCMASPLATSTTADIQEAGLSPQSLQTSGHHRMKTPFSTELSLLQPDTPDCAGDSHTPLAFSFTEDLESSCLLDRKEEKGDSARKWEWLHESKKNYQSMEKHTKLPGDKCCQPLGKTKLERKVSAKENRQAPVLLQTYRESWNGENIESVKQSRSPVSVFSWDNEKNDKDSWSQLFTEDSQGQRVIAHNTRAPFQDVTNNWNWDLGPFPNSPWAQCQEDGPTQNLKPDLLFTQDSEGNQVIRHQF
In words: EMSA; 10 mM MgCl2; 20 nM biotin-DNA, 0-200 nM protein, 1x LightShift binding buffer with 10 mM MgCl2, 2.5% glycerol, 0.05% NP-40, 20 min, room temperature; 10% native PAGE; pH and salt not given. Conditions: protein: recombinant, label: 5'-biotin on oligo 1. In general terms: A gel shift assay detects complexes by their altered migration in electrophoresis.

The next data set has as its target T3, MBP-AUNIP Δ25-70 (UniProt Q9H7T9 1-357, del25-70).
T3 sequence: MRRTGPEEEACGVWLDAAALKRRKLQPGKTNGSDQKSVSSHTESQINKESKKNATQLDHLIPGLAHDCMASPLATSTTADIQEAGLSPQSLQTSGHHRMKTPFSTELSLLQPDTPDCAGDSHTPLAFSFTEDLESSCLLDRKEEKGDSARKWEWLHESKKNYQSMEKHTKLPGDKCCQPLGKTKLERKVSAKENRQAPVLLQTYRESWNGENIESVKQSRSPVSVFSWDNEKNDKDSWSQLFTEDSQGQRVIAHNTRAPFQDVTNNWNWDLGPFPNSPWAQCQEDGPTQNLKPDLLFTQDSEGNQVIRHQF
As to the kind of experiment: EMSA; 10 mM MgCl2; up to 200 nM protein; 20 nM biotin-DNA, 0-200 nM protein, 1x LightShift binding buffer with 10 mM MgCl2, 2.5% glycerol, 0.05% NP-40, 20 min, room temperature; 10% native PAGE; pH and salt not given. Conditions: protein: recombinant; label: 5'-biotin on oligo 1; fork; 31 bp duplex, two 28 nt arms (3' arm of oligo 1, 5' arm of oligo 2).

T1 sequence (Q99708 whole entry): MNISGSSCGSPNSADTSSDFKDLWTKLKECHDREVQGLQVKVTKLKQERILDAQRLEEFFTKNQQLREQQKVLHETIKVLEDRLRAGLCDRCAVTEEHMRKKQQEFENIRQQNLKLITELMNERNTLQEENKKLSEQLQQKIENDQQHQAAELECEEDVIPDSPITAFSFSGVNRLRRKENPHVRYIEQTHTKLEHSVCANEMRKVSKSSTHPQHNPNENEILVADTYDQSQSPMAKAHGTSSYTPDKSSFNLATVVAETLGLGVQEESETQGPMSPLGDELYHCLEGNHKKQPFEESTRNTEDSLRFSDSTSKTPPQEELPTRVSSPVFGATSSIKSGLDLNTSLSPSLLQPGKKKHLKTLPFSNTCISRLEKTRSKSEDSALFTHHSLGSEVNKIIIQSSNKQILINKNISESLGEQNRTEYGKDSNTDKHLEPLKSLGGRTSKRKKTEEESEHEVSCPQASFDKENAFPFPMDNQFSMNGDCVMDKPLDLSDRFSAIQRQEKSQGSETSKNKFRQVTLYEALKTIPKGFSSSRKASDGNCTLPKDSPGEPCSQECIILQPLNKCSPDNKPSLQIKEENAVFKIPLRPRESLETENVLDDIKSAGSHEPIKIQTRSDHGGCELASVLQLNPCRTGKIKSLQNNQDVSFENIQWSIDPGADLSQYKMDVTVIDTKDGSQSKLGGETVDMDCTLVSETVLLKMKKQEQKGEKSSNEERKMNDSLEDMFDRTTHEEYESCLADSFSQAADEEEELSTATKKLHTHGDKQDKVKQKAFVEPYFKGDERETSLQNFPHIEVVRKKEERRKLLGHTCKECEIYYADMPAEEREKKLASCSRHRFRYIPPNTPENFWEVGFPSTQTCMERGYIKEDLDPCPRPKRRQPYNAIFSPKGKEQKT

B1: GST-tagged AUNIP (wild-type) (natural protein, human, UniProt Q9H7T9 1-357, looked up)
chain: MRRTGPEEEACGVWLDAAALKRRKVQTHLIKPGTKMLTLLPGERKANIYFTQRRAPSTGIHQRSIASFFTLQPGKTNGSDQKSVSSHTESQINKESKKNATQLDHLIPGLAHDCMASPLATSTTADIQEAGLSPQSLQTSGHHRMKTPFSTELSLLQPDTPDCAGDSHTPLAFSFTEDLESSCLLDRKEEKGDSARKWEWLHESKKNYQSMEKHTKLPGDKCCQPLGKTKLERKVSAKENRQAPVLLQTYRESWNGENIESVKQSRSPVSVFSWDNEKNDKDSWSQLFTEDSQGQRVIAHNTRAPFQDVTNNWNWDLGPFPNSPWAQCQEDGPTQNLKPDLLFTQDSEGNQVIRHQF
notes: AUNIP/C1orf135, human; pCold vectors may add further N-terminal vector residues; also called GST-AUNIP; recombinant GST-AUNIP; source: E. coli BL21, purified on glutathione-Sepharose resin (kept on the beads)
For the molecule B1, the binding result with MBP-tagged CtIP was “binds”.

B2: splayed arm (dsDNA)
DNA 1: GACGCTGCCGAATTCTACCAGTGCCTTGCTAGGACATCTTTGCCCACCTGCAGGTTCAC
DNA 2: ATAGTCGGATCCTCTAGACAGCTCCATGTAGCAAGGCACTGGTAGAATTCGGCAGCGTC
Consider B2, for which the binding result with MBP-AUNIP (fork, 31 bp duplex, two 28 nt arms (3' arm of oligo 1, 5' arm of oligo 2)) was “binds”; with MBP-AUNIP Δ25-70 it was “no binding”.

B3: 5'-flap (dsDNA)
DNA 1: GACGCTGCCGAATTCTACCAGTGCCTTGCTAGGACATCTTTGCCCACCTGCAGGTTCAC
DNA 2: ATAGTCGGATCCTCTAGACAGCTCCATGTAGCAAGGCACTGGTAGAATTCGGCAGCGTC
DNA 3: GTGAACCTGCAGGTGGGCAAAGATGTCC
As to B3, the binding result with MBP-AUNIP (1:2 31 bp, 1:3 28 bp, 28 nt 5' flap of strand 2) is recorded as “binds”.

B4: 3'-flap (dsDNA)
DNA 1: GACGCTGCCGAATTCTACCAGTGCCTTGCTAGGACATCTTTGCCCACCTGCAGGTTCAC
DNA 2: ATAGTCGGATCCTCTAGACAGCTCCATGTAGCAAGGCACTGGTAGAATTCGGCAGCGTC
DNA 3: CATGGAGCTGTCTAGAGGATCCGACTAT
Take B4: in the data set with MBP-AUNIP (1:2 31 bp, 2:3 28 bp, 28 nt 3' flap of strand 1), the binding result is listed as “binds”.

B5: GST-tagged AUNIP C-terminal region (281-357) (domain or fragment, human, UniProt Q9H7T9 281-357, looked up)
chain: KDSWSQLFTEDSQGQRVIAHNTRAPFQDVTNNWNWDLGPFPNSPWAQCQEDGPTQNLKPDLLFTQDSEGNQVIRHQF
notes: source: E. coli BL21, purified on glutathione-Sepharose resin (kept on the beads)
Consider B5, for which, in the data set with MBP-tagged CtIP, the binding result was “binds”.
